Experimental data reported in patent US20250264476A1, “AMINO ACID-SPECIFIC BINDER AND SELECTIVELY IDENTIFYING AN AMINO ACID” (Government of the United States of America, as represented …, priority 2021, published 2025).

Tested on: biotinylated peptides that vary only by their N-terminal amino acid
Test: Bio-layer interferometry (BLI) binding of ClpS to biotinylated peptides on streptavidin probe
Conditions: ClpS at 0.312-40 μM in 20 mM HEPES pH 8, 150 mM KCl, 0.1% BSA, 0.05% Tween-20
Procedure: The initial binding activity of T. elongatus ClpS2 was characterized using bio-laver interferometry (BLI) In BLI, a functionalized fiber-optic probe is placed in a solution of analyte and the accumulation of analyte on the functional group of the probe is measured by changes in reflected light within the probe. A BLI probe functionalized with streptavidin is allowed to accumulate biotinylated peptide. Probes with peptide are then placed in solutions of ClpS of varying concentration and allowed to equilibrate. BLI response is then graphed to concentration to establish a binding curve. Dilutions of T. elongatus ClpS2 were made in 20 mM HEPES pH 8, 150 mM KCl, 0.1% BSA, and 0.05% Tween-20 at concentrations of 0.312, 0.625, 1.25, 2.5, 5, 10, 20, and 40 μM.
With regard to peptides, all peptides are named by indicating the first two residues, with the full sequence available in Table 3. All of the peptides had the same sequence for the C-terminal end of the peptide, XXAVECK (Sequence ID No. 18), where the N-terminal amino acids are varied. The peptides also contained a biotin linked via the lysine side chain on the C-terminal residue. X1G2 peptides started from a lyophilized form. Peptides were resuspended in 1×DPBS and diluted to the appropriate concentration into the experiment buffer. […]

Sequence of biotinylated peptides that vary only by their N-terminal amino acid (as listed by the source): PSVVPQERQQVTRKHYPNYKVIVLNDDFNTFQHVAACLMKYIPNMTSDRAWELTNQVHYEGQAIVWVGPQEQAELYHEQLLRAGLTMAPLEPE

binding preference across four peptides that vary only by their N-terminal amino acid: strong preference for binding leucine
B1: T. elongatus ClpS2: wild-type ClpS protein, N-End Rule Pathway adaptor protein, parent of the engineered variants (protein, listed as Thermosynechococcus elongatus)
chain: ASVVPQEGQQVTRKHYPNYKVIVLNDDFNTFRHVAACLMKYIPNMTSDRAWELTNQVHYEGQAIVWVGPQEQAELYHEQLLRAGLTMAPLEPEGS
